This is an account of results in publication doi:10.1101/2023.06.15.545202.

Experiment [1] addresses PAN domain of SpG-type LecRLK-2 (amino acids 322-400), secreted His-Avi-sfGFP fusion (Salix purpurea). The experiment in a line: SEC.
The target in experiment [2] is PAN domain of SpG-type LecRLK-2R (amino acids 322-400), secreted His-Avi-sfGFP fusion (Salix purpurea). The experiment in a line: SEC.

In experiment [1], “PAN domain of SpG-type LecRLK-2 (amino acids 322-400), secreted His-Avi-sfGFP fusion (domain or fragment)” gave a percent in higher-order complex of 48.2% and a percent monomeric of 51.8%.
On to “PAN domain of SpG-type LecRLK-2R (amino acids 322-400), secreted His-Avi-sfGFP fusion (domain or fragment)”, for which the percent monomeric in experiment [2] stood at 26.4%.
